# In patent US20230038638A1, “COMPLEMENT FACTOR I-RELATED COMPOSITIONS AND METHODS” (published 2023):
# Assays:
# human C4b (human) [1] = biological target: T1, human C4b (human) (UniProt P0C0L4)
# T1 sequence: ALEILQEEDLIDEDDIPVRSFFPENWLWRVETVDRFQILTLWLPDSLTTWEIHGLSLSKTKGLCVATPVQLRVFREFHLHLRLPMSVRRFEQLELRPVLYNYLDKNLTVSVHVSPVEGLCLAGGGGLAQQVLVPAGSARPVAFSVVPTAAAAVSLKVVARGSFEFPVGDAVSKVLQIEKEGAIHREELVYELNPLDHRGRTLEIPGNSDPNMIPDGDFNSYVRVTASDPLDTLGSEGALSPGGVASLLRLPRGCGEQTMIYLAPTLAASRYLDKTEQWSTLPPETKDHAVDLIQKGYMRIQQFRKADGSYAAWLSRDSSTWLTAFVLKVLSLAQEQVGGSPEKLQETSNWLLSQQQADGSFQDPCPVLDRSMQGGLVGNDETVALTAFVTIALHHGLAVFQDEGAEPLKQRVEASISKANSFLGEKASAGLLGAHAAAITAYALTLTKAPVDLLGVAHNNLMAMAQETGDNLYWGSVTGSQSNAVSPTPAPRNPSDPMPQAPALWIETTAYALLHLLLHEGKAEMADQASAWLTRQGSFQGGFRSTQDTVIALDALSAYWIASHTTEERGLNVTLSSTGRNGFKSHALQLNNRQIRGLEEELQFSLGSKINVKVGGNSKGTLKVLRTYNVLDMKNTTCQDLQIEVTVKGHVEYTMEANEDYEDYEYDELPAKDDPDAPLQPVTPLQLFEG
# [2] = biological target: soluble human C3b (human) (UniProt P01024)
# human C4b (human) [3] = biological target: T1, human C4b (human); remark: listed apart in the source
# [4] = biological target: soluble human C3b (human) (UniProt P01024); remark: listed apart in the source
Substance,C4c EC50 (nM) (human C4b (human) [1]),iC3b EC50 [2],C4b Screen Ref Fold (fold of CFI-HSA wild type) (human C4b (human) [3]),iC3b Screen Ref Fold (fold of CFI-HSA wild type) [4],C4c EC50 (human C4b (human) [1]),C4b Screen Ref Fold (fold of reference) (human C4b (human) [3]),iC3b Screen Ref Fold (fold of reference) [4]
CFI-HSA variant E392G (enzyme),143 nM,9.6 nM,1.3,1.66,–,–,–
CFI-HSA variant G406R (enzyme),474 nM,19 nM,–,–,–,1.31,1.31
CFI-HSA variant K504M (enzyme),> 1000 nM,43.8 nM,–,–,–,0.14,0.52
CFI-HSA variant G406W (enzyme),–,65.5 nM,–,–,> 1000 nM,1.57,0.38
CFI-HSA variant E457K (enzyme),135 nM,9.5 nM,–,–,–,4.58,1.37
CFI-HSA variant K504I (enzyme),> 1000 nM,176 nM,–,–,–,0.05,0.1
CFI-HSA variant W381G (enzyme),–,> 500 nM,–,–,> 1000 nM,0.32,0
CFI-HSA variant E530F; E457G; E461Q; N531G (enzyme),9.1 nM,2.9 nM,4.17,2.48,–,–,–
CFI-HSA variant K504S (enzyme),> 1000 nM,43.7 nM,–,–,–,0.45,0.25
CFI-HSA variant E457W (enzyme),> 1000 nM,110 nM,–,–,–,0.09,0.15
CFI-HSA variant K504R; D425R; E457G; E461Q; N531G (enzyme),8.4 nM,4.2 nM,4.19,1.59,–,–,–
CFI-HSA variant E457G; E461Q; R462K; F464Y; E530F; N531G; P558S (enzyme),21.4 nM,5.5 nM,4.65,2.22,–,–,–
CFI-HSA variant D420G (enzyme),63.6 nM,7 nM,2.71,2.53,–,–,–
CFI-HSA variant G406V (enzyme),–,43.1 nM,–,–,> 1000 nM,1.09,0.44
CFI-HSA variant A405S (enzyme),353 nM,23.9 nM,–,–,–,2.12,0.94
CFI-HSA variant E457G; E461Q; F464Y; K504H; N531G (enzyme),> 1000 nM,22.7 nM,1.78,0.49,–,–,–
CFI-HSA variant G406S (enzyme),–,32.6 nM,–,–,315 nM,1.83,0.4
CFI-HSA variant Y408M (enzyme),930 nM,29.1 nM,–,–,–,0.17,1.21
CFI-HSA variant G406T (enzyme),–,52.4 nM,–,–,> 1000 nM,1.09,0.52
CFI-HSA variant K504R; P558S; E457G; E461Q; N531G (enzyme),9 nM,5.5 nM,4.03,2.12,–,–,–
CFI-HSA variant E457L (enzyme),> 1000 nM,51.4 nM,–,–,–,0.14,0.21
CFI-HSA variant N531L (enzyme),219 nM,17.6 nM,–,–,–,3.47,1.04
CFI-HSA variant E461V (enzyme),64.4 nM,8.9 nM,–,–,–,4.79,2.03
CFI-HSA variant T377G; E416A; K504H (enzyme),47.8 nM,12 nM,3.37,0.77,–,–,–

# Next, values leading:
C4c EC50 (nM) (human C4b (human) [1]),iC3b EC50 [2],C4b Screen Ref Fold (fold of CFI-HSA wild type) (human C4b (human) [3]),iC3b Screen Ref Fold (fold of CFI-HSA wild type) [4],C4c EC50 (human C4b (human) [1]),C4b Screen Ref Fold (fold of reference) (human C4b (human) [3]),iC3b Screen Ref Fold (fold of reference) [4],Substance
21 nM,5.2 nM,4.04,1.25,–,–,–,CFI-HSA variant E457G; E461Q; E530Y; N531G; P558S (enzyme)
–,35.9 nM,–,–,> 1000 nM,0.49,0.47,CFI-HSA variant G406P (enzyme)
238 nM,25.5 nM,0.88,1.34,–,–,–,CFI-HSA variant N422G (enzyme)
5 nM,2.5 nM,3.85,2.84,–,–,–,CFI-HSA variant N422K; E457G; E461Q; Q467K; N531G (enzyme)
> 1000 nM,151 nM,–,–,–,0.33,0.12,CFI-HSA variant G406D (enzyme)
–,13.5 nM,–,–,> 1000 nM,2.18,0.7,CFI-HSA variant D425G (enzyme)
6.9 nM,2.4 nM,3.92,1.98,–,–,–,CFI-HSA variant K504R; E530F; D425K; P558S; E457G; E461Q; N531G (enzyme)
87.5 nM,7.3 nM,–,–,–,4.22,1.71,CFI-HSA variant E461L (enzyme)
> 1000 nM,77.5 nM,–,–,–,0.29,0.13,CFI-HSA variant K504F (enzyme)
223 nM,13 nM,–,–,–,3.03,-0.01,CFI-HSA variant N531K (enzyme)
> 1000 nM,10.4 nM,–,–,–,1.34,1.5,CFI-HSA variant E457T (enzyme)
> 1000 nM,5.7 nM,0.05,2.91,–,–,–,CFI-HSA variant K504R; E530F; D425K; P558S (enzyme)
> 1000 nM,48.7 nM,–,–,–,0.27,0.12,CFI-HSA variant K504W (enzyme)
148 nM,6.9 nM,–,–,–,1.9,2.12,CFI-HSA variant E461M (enzyme)
156 nM,17.5 nM,1.69,1.61,–,–,–,CFI-HSA variant N460G (enzyme)
18.1 nM,4.2 nM,4.21,2.01,–,–,–,CFI-HSA variant E457G; E461Q; F464Y; E530F; N531G; P558S (enzyme)
> 1000 nM,5.2 nM,0.09,3,–,–,–,CFI-HSA variant K504R; E530F; D425R; P558S (enzyme)
50.1 nM,15.7 nM,3.01,0.95,–,–,–,CFI-HSA variant T377G; K504H (enzyme)
> 1000 nM,76.8 nM,–,–,–,0.57,0.18,CFI-HSA variant K504N (enzyme)
4.4 nM,1.7 nM,3.84,3.05,–,–,–,CFI-HSA variant E416A; N422K; E457G; E461Q; Q467K; N531G (enzyme)
395 nM,19.8 nM,–,–,–,1.8,1,CFI-HSA variant E457Q (enzyme)
134 nM,11.7 nM,–,–,–,3.16,1.3,CFI-HSA variant E461H (enzyme)
–,40.5 nM,–,–,> 1000 nM,1.17,0.6,CFI-HSA variant G406M (enzyme)
